Here are results for 1 molecule from patent US20210122826A1 (MIT, published 2021).

Common to all, as to experiment: flow, Jurkat, 100 nM Ab
The target in one test is T1, Human Clec7A (human, UniProt Q9BXN2 1-247).
T1 construct: also called hClec7A
T1 sequence: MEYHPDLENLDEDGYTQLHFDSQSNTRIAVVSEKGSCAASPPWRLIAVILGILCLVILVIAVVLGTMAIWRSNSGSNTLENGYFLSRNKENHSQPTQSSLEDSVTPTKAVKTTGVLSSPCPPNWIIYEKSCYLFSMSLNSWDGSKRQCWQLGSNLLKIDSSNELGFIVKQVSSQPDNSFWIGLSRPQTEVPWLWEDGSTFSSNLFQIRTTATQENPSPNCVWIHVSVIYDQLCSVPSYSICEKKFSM

Another test deals with T2, Human CD94 (human, UniProt Q13241 1-179).
T2 construct: also called hCD94
T2 sequence: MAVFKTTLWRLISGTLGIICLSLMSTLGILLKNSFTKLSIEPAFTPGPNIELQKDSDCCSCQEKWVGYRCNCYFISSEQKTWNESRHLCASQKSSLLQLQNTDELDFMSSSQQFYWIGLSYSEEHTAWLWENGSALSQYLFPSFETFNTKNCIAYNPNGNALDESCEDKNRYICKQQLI

In the next test the target is T3, Human KLRF2 (human, UniProt D3W0D1 1-207).
T3 construct: also called hKLRF2
T3 sequence: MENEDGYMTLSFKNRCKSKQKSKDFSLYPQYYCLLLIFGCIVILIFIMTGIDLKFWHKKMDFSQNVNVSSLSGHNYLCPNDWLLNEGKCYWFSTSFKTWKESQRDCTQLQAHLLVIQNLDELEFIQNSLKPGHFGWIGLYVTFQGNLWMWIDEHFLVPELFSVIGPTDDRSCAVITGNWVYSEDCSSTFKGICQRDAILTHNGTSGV

A further test deals with T4, human CD161 (human, UniProt Q12918 1-225).
T4 construct: UniProt Q12918; also called hCD161; KLRB1

The target of a further test is T5, Human KLRF1 (human, UniProt Q9NZS2 1-231).
T5 construct: also called hKLRF1
T5 sequence: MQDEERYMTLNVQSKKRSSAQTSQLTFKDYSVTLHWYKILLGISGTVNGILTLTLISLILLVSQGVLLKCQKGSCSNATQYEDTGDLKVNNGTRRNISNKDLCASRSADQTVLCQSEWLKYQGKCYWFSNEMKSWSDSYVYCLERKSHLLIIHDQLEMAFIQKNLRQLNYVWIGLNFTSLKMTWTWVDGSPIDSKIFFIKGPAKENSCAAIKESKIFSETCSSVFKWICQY

In a further test the target is T6, Human Clec5A (human, UniProt Q9NY25 1-188).
T6 construct: also called hClec5A
T6 sequence: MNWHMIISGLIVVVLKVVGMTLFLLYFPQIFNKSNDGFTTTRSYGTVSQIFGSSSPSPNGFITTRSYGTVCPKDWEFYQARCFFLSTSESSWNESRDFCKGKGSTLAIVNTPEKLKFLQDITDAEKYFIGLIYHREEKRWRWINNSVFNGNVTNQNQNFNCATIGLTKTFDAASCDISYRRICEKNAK

A further test concerns the target T7, Human OLR1 (human, UniProt P78380 1-273).
T7 construct: also called hOLR1

The target in the next test is T8, Human KLRG1 (human, UniProt Q96E93 1-195).
T8 construct: also called hKLRG1
T8 sequence: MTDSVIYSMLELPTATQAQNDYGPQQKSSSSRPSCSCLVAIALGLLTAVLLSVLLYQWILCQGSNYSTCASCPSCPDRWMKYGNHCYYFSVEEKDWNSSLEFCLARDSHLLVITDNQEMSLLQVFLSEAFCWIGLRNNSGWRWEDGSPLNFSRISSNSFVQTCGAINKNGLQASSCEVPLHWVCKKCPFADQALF

The target in another test is T9, Human CD209 (human, UniProt Q9NNX6 1-404).
T9 construct: also called hCD209
T9 sequence: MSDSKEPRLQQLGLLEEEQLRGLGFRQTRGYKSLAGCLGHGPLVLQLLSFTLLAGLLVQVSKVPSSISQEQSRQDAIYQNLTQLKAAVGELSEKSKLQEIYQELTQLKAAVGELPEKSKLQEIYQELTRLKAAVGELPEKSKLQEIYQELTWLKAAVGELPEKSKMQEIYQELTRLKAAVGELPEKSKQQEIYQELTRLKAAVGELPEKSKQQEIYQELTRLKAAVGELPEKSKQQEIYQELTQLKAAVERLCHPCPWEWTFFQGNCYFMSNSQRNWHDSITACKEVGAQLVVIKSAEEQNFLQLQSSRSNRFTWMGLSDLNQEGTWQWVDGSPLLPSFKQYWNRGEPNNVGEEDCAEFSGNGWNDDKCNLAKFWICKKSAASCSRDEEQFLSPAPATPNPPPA

The target of the next test is T10, Human Clec10A (human, UniProt Q8IUN9 1-316).
T10 construct: also called hClec10A
T10 sequence: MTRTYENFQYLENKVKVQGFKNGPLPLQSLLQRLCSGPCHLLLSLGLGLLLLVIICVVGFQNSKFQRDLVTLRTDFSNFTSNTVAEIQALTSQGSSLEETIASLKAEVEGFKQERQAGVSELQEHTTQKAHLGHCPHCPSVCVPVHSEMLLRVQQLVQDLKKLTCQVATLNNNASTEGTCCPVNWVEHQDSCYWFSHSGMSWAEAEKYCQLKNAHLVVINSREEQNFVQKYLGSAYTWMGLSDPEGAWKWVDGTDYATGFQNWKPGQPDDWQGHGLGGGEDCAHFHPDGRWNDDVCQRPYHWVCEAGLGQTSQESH

The target of the next test is T11, Human Clec9A (human, UniProt Q6UXN8 1-241).
T11 construct: also called hClec9A

A further test has as its target T12, Human Clec4E (human, UniProt Q9ULY5 1-219).
T12 construct: also called hClec4E
T12 sequence: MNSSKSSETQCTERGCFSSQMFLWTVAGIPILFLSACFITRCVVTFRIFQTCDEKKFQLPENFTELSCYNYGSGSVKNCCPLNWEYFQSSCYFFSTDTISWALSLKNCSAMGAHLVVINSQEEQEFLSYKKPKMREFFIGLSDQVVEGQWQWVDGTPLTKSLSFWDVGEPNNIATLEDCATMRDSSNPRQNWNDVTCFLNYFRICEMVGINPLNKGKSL

T11 sequence (Q6UXN8 whole entry): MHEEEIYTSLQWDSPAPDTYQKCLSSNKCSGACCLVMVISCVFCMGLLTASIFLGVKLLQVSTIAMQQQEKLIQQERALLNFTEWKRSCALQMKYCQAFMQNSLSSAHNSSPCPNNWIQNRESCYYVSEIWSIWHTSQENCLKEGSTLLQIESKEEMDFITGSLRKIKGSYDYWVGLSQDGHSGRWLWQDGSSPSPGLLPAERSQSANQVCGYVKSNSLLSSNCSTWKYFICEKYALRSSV

B1: KW9.3.3 (antibody, V domains shown)
VH: EVQLVESGGGLVQPGGSLRLSCAASGFTFSSYAMSWVRQAPGKGLEWVSAISGSGGRTYYADSVKGRFTISRDNSKNTLYLQMNSLRAEDTAMYYCARGPGYMYLYGDSFFEYWGQGTLVTVSS
VL: DIQMAQSPSSLSASVGDRVTITCRASQGISSYLNWYQQKPGKAPKLLIYAASSLQSGVPSRFSGSGYGTDFTLTISSLQPEDFATYYCQQSYSTPLTFGQGTKVEIK
As for B1, the “MFI normalized to WT” value in the test with Human Clec7A was 1.03; with Human CD94 it was 0.84; with Human KLRF2, 0.9; with human CD161, 150; with Human KLRF1 it was 0.8; with Human Clec5A, 0.93. Also, the “MFI normalized to WT” value with Human OLR1 came out at 0.9; with Human KLRG1 it was 0.93; in the test with Human CD209 it was 0.81; in the test with Human Clec10A, 0.86; with Human Clec9A, 0.94; in the test with Human Clec4E, 0.85.
